Measured values published in patent EP3088890B1 (Chugai Seiyaku Kabushiki Kaisha, dated 2020).
Values belong to the binder of their own block, whether it stands above or below them.

Columns and labels:
[1] = biological target: GPC3 core (sGPC3-His) protein (human) (UniProt P51654); test: competition ELISA on plate-bound sGPC3; unlabeled GT114 (100-fold) against competitor biotin-labeled GT30
[2] = biological target: GPC3 core (sGPC3-His) protein (human) (UniProt P51654); test: competition ELISA on plate-bound sGPC3; unlabeled GT114 (100-fold) against competitor biotin-labeled GT30; signal of the labeled antibody
[3] = biological target: T1, AW5, C-terminally His-tagged recombinant product of positions 1 to 357 of GPC3 (human, UniProt P51654 25-357); test: Western blot analysis, CHO cell pellets
T1 construct: Expressed in CHO cells, cell pellets used in Western blot; The range is as printed and starts at position 1; also called AW5 (1-357); not shown: C-terminal His tag

[4] = biological target: GPC3 core (sGPC3-His) protein (human) (UniProt P51654); test: competition ELISA on plate-bound sGPC3; unlabeled GT114 (100-fold) against competitor biotin-labeled GT114
[5] = biological target: T2, AW3, C-terminally His-tagged recombinant product of positions 1 to 218 of GPC3 (human, UniProt P51654 25-218); test: Western blot, pellets of CHO cells expressing the product
T2 construct: Expressed in CHO cells, cell pellets used in Western blot; The range is as printed and starts at position 1; not shown: C-terminal His tag

[6] = biological target: GPC3 core (sGPC3-His) protein (human) (UniProt P51654); test: competition ELISA on plate-bound sGPC3; unlabeled GT114 (100-fold) against competitor biotin-labeled GT607; signal of the labeled antibody
[7] = biological target: GPC3 core (sGPC3-His) protein (human) (UniProt P51654); test: competition ELISA on plate-bound sGPC3; unlabeled GT114 (100-fold) against competitor biotin-labeled GT165; signal of the labeled antibody
[8] = biological target: GPC3 core (sGPC3-His) protein (human) (UniProt P51654); test: competition ELISA on plate-bound sGPC3; unlabeled GT114 (100-fold) against competitor biotin-labeled GT165
[9] = biological target: GPC3 core (sGPC3-His) protein (human) (UniProt P51654); test: ELISA on plate-bound sGPC3; biotin-labeled GT114, no unlabeled antibody
[10] = biological target: GPC3 core (sGPC3-His) protein (human) (UniProt P51654); test: competition ELISA on plate-bound sGPC3; unlabeled GT114 (100-fold) against competitor biotin-labeled GT114; signal of the labeled antibody
[11] = biological target: GPC3 core (sGPC3-His) protein (human) (UniProt P51654); test: competition ELISA on plate-bound sGPC3; unlabeled GT165 (100-fold) against competitor biotin-labeled GT165
[12] = biological target: GPC3 core (sGPC3-His) protein (human) (UniProt P51654); test: competition ELISA on plate-bound sGPC3; unlabeled GT165 (100-fold) against competitor biotin-labeled GT30
[13] = biological target: GPC3 core (sGPC3-His) protein (human) (UniProt P51654); test: competition ELISA on plate-bound sGPC3; unlabeled GT165 (100-fold) against competitor biotin-labeled GT165; signal of the labeled antibody
[14] = biological target: GPC3 core (sGPC3-His) protein (human) (UniProt P51654); test: competition ELISA on plate-bound sGPC3; unlabeled GT165 (100-fold) against competitor biotin-labeled GT607
[15] = biological target: GPC3 core (sGPC3-His) protein (human) (UniProt P51654); test: competition ELISA on plate-bound sGPC3; unlabeled GT165 (100-fold) against competitor biotin-labeled GT607; signal of the labeled antibody
[16] = biological target: GPC3 core (sGPC3-His) protein (human) (UniProt P51654); test: competition ELISA on plate-bound sGPC3; unlabeled GT165 (100-fold) against competitor biotin-labeled GT30; signal of the labeled antibody
[17] = biological target: GPC3 core (sGPC3-His) protein (human) (UniProt P51654); test: competition ELISA on plate-bound sGPC3; unlabeled GT165 (100-fold) against competitor biotin-labeled GT114
[18] = biological target: GPC3 core (sGPC3-His) protein (human) (UniProt P51654); test: ELISA on plate-bound sGPC3; biotin-labeled GT165, no unlabeled antibody
[19] = biological target: GPC3 core (sGPC3-His) protein (human) (UniProt P51654); test: competition ELISA on plate-bound sGPC3; unlabeled GT165 (100-fold) against competitor biotin-labeled GT114; signal of the labeled antibody
[20] = biological target: GPC3 core (sGPC3-His) protein (human) (UniProt P51654); test: competition ELISA on plate-bound sGPC3; unlabeled GT607 (100-fold) against competitor biotin-labeled GT114
[21] = biological target: GPC3 core (sGPC3-His) protein (human) (UniProt P51654); test: competition ELISA on plate-bound sGPC3; unlabeled GT607 (100-fold) against competitor biotin-labeled GT30
[22] = biological target: GPC3 core (sGPC3-His) protein (human) (UniProt P51654); test: competition ELISA on plate-bound sGPC3; unlabeled GT607 (100-fold) against competitor biotin-labeled GT30; signal of the labeled antibody
[23] = biological target: GPC3 core (sGPC3-His) protein (human) (UniProt P51654); test: competition ELISA on plate-bound sGPC3; unlabeled GT607 (100-fold) against competitor biotin-labeled GT165
[24] = biological target: GPC3 core (sGPC3-His) protein (human) (UniProt P51654); test: competition ELISA on plate-bound sGPC3; unlabeled GT607 (100-fold) against competitor biotin-labeled GT165; signal of the labeled antibody
[25] = biological target: GPC3 core (sGPC3-His) protein (human) (UniProt P51654); test: competition ELISA on plate-bound sGPC3; unlabeled GT607 (100-fold) against competitor biotin-labeled GT607
[26] = biological target: GPC3 core (sGPC3-His) protein (human) (UniProt P51654); test: ELISA on plate-bound sGPC3; biotin-labeled GT607, no unlabeled antibody

GPC3 core (sGPC3-His) protein (human), sequence (P51654 25-563 S495A/S509A): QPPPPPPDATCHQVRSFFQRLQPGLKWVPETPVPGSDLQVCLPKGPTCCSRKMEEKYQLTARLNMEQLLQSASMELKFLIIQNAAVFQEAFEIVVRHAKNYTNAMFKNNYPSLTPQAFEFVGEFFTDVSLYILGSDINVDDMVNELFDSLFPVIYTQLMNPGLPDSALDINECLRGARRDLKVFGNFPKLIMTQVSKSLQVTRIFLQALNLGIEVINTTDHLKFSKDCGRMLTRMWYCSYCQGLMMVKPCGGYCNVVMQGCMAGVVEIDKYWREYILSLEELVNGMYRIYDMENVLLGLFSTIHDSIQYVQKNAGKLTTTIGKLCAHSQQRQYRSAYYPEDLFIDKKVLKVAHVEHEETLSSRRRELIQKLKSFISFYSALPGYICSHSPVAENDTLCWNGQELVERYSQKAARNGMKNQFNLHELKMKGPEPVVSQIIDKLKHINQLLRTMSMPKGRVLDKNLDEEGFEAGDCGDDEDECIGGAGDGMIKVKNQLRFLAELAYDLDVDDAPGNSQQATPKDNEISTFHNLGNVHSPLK
T2 sequence (P51654 25-218): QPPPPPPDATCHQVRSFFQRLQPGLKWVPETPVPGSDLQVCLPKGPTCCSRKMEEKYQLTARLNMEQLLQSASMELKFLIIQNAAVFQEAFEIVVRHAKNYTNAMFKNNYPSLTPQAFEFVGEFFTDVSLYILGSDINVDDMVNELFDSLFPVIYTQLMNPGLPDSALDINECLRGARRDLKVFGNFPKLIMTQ
T1 sequence (P51654 25-357): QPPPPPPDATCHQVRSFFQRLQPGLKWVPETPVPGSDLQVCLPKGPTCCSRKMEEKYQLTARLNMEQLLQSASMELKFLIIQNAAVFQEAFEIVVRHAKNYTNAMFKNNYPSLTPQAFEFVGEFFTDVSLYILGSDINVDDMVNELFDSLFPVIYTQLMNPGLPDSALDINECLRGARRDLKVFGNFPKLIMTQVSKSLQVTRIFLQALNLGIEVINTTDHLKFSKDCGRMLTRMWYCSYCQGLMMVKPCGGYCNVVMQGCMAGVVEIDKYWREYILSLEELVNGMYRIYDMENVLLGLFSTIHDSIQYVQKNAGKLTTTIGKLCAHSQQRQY

- Inhibitory effect (%) [1]: < 0%
- O.D. 450 [2]: 2.14 O.D. 450
- binding result [3]: binds
- Inhibitory effect (%) [4]: 89%
- binding result [5]: no binding
- O.D. 450 [6]: 0.307 O.D. 450
- O.D. 450 [7]: 1.82 O.D. 450
- Inhibitory effect (%) [8]: < 0%
- O.D. 450 [9]: 2.3 O.D. 450
- O.D. 450 [10]: 0.251 O.D. 450
B1: GT114 antibody (antibody, IgG1, V domains shown)
VH: DVQLQESGPGLVKPSQSLSLTCTVTGYSITSDSAWNWIRQFPGNKLEWMAYIMYSGITSYNPSLKSRISITRDTAKNQFFLQLNSVTTEDSATYYCSRGYWYFDVWGAGTTVTVSS
VL: QIVLTQSPAIMSASLGEEITLTCSASSSVSYMHWYQQKSGTSPKLLIYSTSILASGVPSRFSGSGSGTFYSLTISSVEAEDAADYYCLQWITYRTFGGGTKLEIKR

- Inhibitory effect (%) [11]: 93%
- Inhibitory effect (%) [12]: 54%
- binding result [5]: no binding
- O.D. 450 [13]: 0.111 O.D. 450
- Inhibitory effect (%) [14]: 43%
- O.D. 450 [15]: 1.25 O.D. 450
- O.D. 450 [16]: 0.846 O.D. 450
- Inhibitory effect (%) [17]: 1%
- O.D. 450 [18]: 1.68 O.D. 450
- O.D. 450 [19]: 2.28 O.D. 450
B2: GT165 antibody (antibody, IgG1, V domains shown)
VH: QVQLQQSGAELVGPGASVKISCKAFGYTFTNHHINWVKQRPGQGLDWIGYINPYNDYTNYNQKFKGKATLTVDKSSSTAYMELSSLTSEDSAVYYCARSDPAWFAYWGQGTLVTVSA
VL: DIQMTQSPSSLSASLGGKVTITCKASQDINKNIAWYQHKPGKGPRLLIWYTYTLQPGIPSRFSGSGSGRDYSFSISNLEPEDIATYYCLQYDNLPFTFGTGTKLEIKR

- Inhibitory effect (%) [20]: 51%
- Inhibitory effect (%) [21]: < 0%
- O.D. 450 [22]: 2.06 O.D. 450
- Inhibitory effect (%) [23]: 92%
- binding result [3]: binds
- binding result [5]: no binding
- O.D. 450 [24]: 0.129 O.D. 450
- Inhibitory effect (%) [25]: 94%
- O.D. 450 [26]: 2.18 O.D. 450
B3: GT607 antibody (antibody, IgG1, V domains shown)
VH: EVQLVESGGDVVRPGGSLKLSCAASGFTFSSYGMSWVRQLPDKRLEWVASVGNGGSYRYYPENLKGRFTISRDNTKNTLYLQISGLKSEDTAIYYCARRGAFPYFDVWGAGTTVTVSS
VL: QIVLTQSPAIMSASPGEKVTLACSASSSVTYMHWYQQKSGTSPKRWIYETSKLASGVPPRFSGSGSGTSYSLTISTMEAEDAATYYCQQWSSNPLTFGAGTKLELKR
